Data on 3 molecules can be found in paper PMC9482650, “Quantitative fragmentomics allow affinity mapping of interactomes” (Nature Communications, 2022).

Residue numbers refer to the chain shown, from its start.

A word on the pKd: it is the Kd on a negative log10 scale, so that one unit is a factor of ten.

To fix the notation:
T1: GRIP1_5, Q9Y3R0
T1 sequence (Q9Y3R0 568-668, limits assumed, looked up): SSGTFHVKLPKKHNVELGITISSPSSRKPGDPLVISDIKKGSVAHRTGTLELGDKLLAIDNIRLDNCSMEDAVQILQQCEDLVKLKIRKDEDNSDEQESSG

T2: LIN7B, Q9HAP6
T2 sequence (Q9HAP6 88-185, limits assumed, looked up): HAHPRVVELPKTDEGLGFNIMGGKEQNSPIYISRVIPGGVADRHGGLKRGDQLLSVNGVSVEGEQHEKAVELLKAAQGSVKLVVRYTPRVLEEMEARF

T3: MPP7, Q5T2T1
T3 sequence (Q5T2T1 134-230, limits assumed, looked up): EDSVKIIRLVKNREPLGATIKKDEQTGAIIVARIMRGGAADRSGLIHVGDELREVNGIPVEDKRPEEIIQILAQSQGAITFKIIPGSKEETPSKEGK

T4: TX1BP3, O14907
T4 sequence (O14907 10-122, limits assumed, looked up): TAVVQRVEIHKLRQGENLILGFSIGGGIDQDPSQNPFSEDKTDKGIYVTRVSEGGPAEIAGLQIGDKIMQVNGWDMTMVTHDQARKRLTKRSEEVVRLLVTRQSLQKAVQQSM

T5: ARHGAP21, Q5T5U3
T5 sequence (Q5T5U3 45-169, limits assumed, looked up): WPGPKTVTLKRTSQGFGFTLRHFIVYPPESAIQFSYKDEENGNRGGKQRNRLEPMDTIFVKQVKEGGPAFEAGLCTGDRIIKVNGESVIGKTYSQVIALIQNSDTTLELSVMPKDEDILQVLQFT

T6: APBA2_2, Q99767
T6 sequence (Q99767 654-744, limits assumed, looked up): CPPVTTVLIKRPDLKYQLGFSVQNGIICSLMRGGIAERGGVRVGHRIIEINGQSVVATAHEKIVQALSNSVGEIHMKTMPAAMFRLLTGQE

T7: MPDZ_5, O75970
T7 sequence (O75970 695-796, limits assumed, looked up): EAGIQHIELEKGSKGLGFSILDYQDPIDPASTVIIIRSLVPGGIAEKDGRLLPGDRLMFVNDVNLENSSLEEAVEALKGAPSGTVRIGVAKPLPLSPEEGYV

T8: NHERF3_4, Q5T2W1
T8 sequence (Q5T2W1 373-468, limits assumed, looked up): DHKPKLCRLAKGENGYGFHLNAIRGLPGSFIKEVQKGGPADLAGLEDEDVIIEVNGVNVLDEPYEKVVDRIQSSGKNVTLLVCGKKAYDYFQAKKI

T9: APBA1_2, Q02410
T9 sequence (Q02410 742-832, limits assumed, looked up): T6 sequence (Q99767 654-744, limits assumed, looked up) with K10R, K15R, A59P, Q65H, A66I, S70A, F84Y, G89A

T10: MPP2, Q14168
T10 sequence (Q14168 180-250, limits assumed, looked up): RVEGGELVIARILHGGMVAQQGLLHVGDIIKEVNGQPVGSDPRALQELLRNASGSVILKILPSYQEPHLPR

T11: SIPA1L2, Q9P2F8
T11 sequence (Q9P2F8 945-1036, limits assumed, looked up): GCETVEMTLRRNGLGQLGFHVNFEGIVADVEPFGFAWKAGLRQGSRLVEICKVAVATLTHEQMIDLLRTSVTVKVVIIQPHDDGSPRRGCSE

T12: PDZD7_3, Q9H5P4
T12 sequence (Q9H5P4 857-944, limits assumed, looked up): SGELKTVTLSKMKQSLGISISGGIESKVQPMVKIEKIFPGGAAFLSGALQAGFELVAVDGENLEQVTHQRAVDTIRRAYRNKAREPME

T13: NHERF3_3, Q5T2W1
T13 sequence (Q5T2W1 238-333, limits assumed, looked up): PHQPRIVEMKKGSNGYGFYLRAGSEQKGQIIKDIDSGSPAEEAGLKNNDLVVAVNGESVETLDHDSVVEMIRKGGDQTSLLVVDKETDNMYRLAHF

T14: SNTB1, Q13884
T14 sequence (Q13884 107-205, limits assumed, looked up): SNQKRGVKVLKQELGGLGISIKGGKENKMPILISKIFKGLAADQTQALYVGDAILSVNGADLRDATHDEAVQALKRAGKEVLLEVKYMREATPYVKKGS

B1: MUC3A, MUC3B, Q02505;Q9H195 (peptide)
chain: KRPEMTSSSV
B2: CRIPT, Q9P021 (peptide)
chain: DTKNYKQTSV
B3: NF2, P35240;P35240-1 (peptide)
chain: KSRVAFFEEL

Inadl_4, Q8NI35, sequence (Q8NI35 547-651): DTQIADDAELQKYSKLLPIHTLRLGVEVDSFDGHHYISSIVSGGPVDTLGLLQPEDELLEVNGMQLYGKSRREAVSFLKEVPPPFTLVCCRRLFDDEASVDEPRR
MAST2, Q6P0Q8, sequence (Q6P0Q8 1099-1202): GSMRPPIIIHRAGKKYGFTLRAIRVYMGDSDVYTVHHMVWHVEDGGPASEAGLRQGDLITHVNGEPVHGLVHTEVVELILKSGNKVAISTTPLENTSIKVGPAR
PDLIM1, O00151, sequence (O00151 1-87): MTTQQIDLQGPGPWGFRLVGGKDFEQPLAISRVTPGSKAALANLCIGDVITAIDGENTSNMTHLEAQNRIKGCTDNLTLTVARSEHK

The target in the first test is T1, GRIP1_5, Q9Y3R0. Briefly: holdup assay. To be noted: plain residues with an end cap or a label only (N-terminal biotin on a linker: ado-ado). Set-up: key: below the threshold = too weak to quantify, mostly under pKd 3.1 to 4.
Consider B1, for which the pKd entry is “below the threshold”.

For the molecule B2, the negative-log Kd (pKd) result is on record as “below the threshold”.

The target of the next test is T2, LIN7B, Q9HAP6. Briefly: holdup assay. Set-up: key: below the threshold = too weak to quantify, mostly under pKd 3.1 to 4. As to conditions: plain residues with an end cap or a label only (N-terminal biotin on a linker: ado-ado).
B1 showed a pKd of 3.68.

For B3, the negative logarithm of the Kd (pKd) entry is given as “below the threshold”.

For B2, the negative logarithm of the Kd (pKd) entry is on record as “below the threshold”.

The target in another test is FRMPD2_2, Q68DX3. Briefly: holdup assay. As to conditions: plain residues with an end cap or a label only (N-terminal biotin on a linker: ado-ado). Set-up: key: below the threshold = too weak to quantify, mostly under pKd 3.1 to 4.
FRMPD2_2, Q68DX3, sequence (Q68DX3 944-1038): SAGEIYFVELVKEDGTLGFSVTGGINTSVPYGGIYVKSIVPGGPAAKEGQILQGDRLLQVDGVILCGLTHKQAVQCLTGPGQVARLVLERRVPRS
B3: the negative-log Kd (pKd) result is “below the threshold”.

As to B2, the pKd result is given as “below the threshold”.

The target in the next test is PTPN3, P26045. Briefly: holdup assay. Set-up: key: below the threshold = too weak to quantify, mostly under pKd 3.1 to 4. As to conditions: plain residues with an end cap or a label only (N-terminal biotin on a linker: ado-ado).
PTPN3, P26045, sequence (P26045 505-587): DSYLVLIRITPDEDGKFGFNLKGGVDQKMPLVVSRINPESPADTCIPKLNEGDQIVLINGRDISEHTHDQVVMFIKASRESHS
With B3, the negative-log Kd (pKd) is 4.22.

In the case of B2, the negative logarithm of the Kd (pKd) came to 5.07.

The target in the next test is T3, MPP7, Q5T2T1. Briefly: holdup assay. To be noted: plain residues with an end cap or a label only (N-terminal biotin on a linker: ado-ado). Set-up: key: below the threshold = too weak to quantify, mostly under pKd 3.1 to 4.
As to B1, the pKd result was “below the threshold”.

Take B3: the pKd entry is listed as “below the threshold”.

Consider B2, for which the pKd entry was “below the threshold”.

For another test, the target named is DLG4_1, P78352. Briefly: holdup assay. As to conditions: plain residues with an end cap or a label only (N-terminal biotin on a linker: ado-ado). On the set-up: key: below the threshold = too weak to quantify, mostly under pKd 3.1 to 4.
DLG4_1, P78352, sequence (P78352 62-152): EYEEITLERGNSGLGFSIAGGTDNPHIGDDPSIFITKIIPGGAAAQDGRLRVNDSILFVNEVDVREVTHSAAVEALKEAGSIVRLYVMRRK
With B1, the pKd result is “below the threshold”.

Regarding B2, the negative-log Kd (pKd) was 4.37.

The target in another test is GRIP2_4, Q9C0E4. Briefly: holdup assay. To be noted: plain residues with an end cap or a label only (N-terminal biotin on a linker: ado-ado). Set-up: key: below the threshold = too weak to quantify, mostly under pKd 3.1 to 4.
GRIP2_4, Q9C0E4, sequence (Q9C0E4 446-548): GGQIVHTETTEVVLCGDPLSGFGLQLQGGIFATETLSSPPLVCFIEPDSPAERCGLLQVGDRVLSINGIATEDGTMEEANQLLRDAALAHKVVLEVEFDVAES
On to B1, for which the negative logarithm of the Kd (pKd) entry is “below the threshold”.

For B2, the pKd result is given as “below the threshold”.

Another test addresses T4, TX1BP3, O14907. Briefly: holdup assay. Set-up: key: below the threshold = too weak to quantify, mostly under pKd 3.1 to 4. As to conditions: plain residues with an end cap or a label only (N-terminal biotin on a linker: ado-ado).
B3 returned a negative logarithm of the Kd (pKd) of 4.34.

B2 gave a negative-log Kd (pKd) of 5.4.

A further test addresses T5, ARHGAP21, Q5T5U3. Briefly: holdup assay. Set-up: key: below the threshold = too weak to quantify, mostly under pKd 3.1 to 4. To be noted: plain residues with an end cap or a label only (N-terminal biotin on a linker: ado-ado).
Take B3: the pKd entry was “below the threshold”.

In the case of B2, the pKd amounted to 3.75.

Another test has as its target T6, APBA2_2, Q99767. Briefly: holdup assay. Set-up: key: below the threshold = too weak to quantify, mostly under pKd 3.1 to 4. To be noted: plain residues with an end cap or a label only (N-terminal biotin on a linker: ado-ado).
Turning to B1, the pKd entry is “below the threshold”.

For the molecule B3, the pKd entry was “below the threshold”.

Turning to B2, the pKd entry is given as “below the threshold”.

Another test concerns the target T7, MPDZ_5, O75970. Briefly: holdup assay. On the set-up: key: below the threshold = too weak to quantify, mostly under pKd 3.1 to 4. To be noted: plain residues with an end cap or a label only (N-terminal biotin on a linker: ado-ado).
Consider B1, for which the negative logarithm of the Kd (pKd) entry is on record as “below the threshold”.

Take B3: the negative logarithm of the Kd (pKd) result is given as “below the threshold”.

As for B2, the pKd result is listed as “below the threshold”.

In another test the target is T8, NHERF3_4, Q5T2W1. Briefly: holdup assay. Set-up: key: below the threshold = too weak to quantify, mostly under pKd 3.1 to 4. As to conditions: plain residues with an end cap or a label only (N-terminal biotin on a linker: ado-ado).
In the case of B2, the pKd came out at 3.56.

In the next test the target is T9, APBA1_2, Q02410. Briefly: holdup assay. On the set-up: key: below the threshold = too weak to quantify, mostly under pKd 3.1 to 4. To be noted: plain residues with an end cap or a label only (N-terminal biotin on a linker: ado-ado).
B1 yielded a pKd of 1.83.

B2 registered a pKd of 3.73.

The next test deals with MAGI2_6, Q86UL8. Briefly: holdup assay. To be noted: plain residues with an end cap or a label only (N-terminal biotin on a linker: ado-ado). Set-up: key: below the threshold = too weak to quantify, mostly under pKd 3.1 to 4.
MAGI2_6, Q86UL8, sequence (Q86UL8 1141-1229): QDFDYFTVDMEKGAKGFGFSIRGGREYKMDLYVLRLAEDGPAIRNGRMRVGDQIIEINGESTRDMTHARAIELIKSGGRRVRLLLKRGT
In turn, B1 showed a negative logarithm of the Kd (pKd) of 3.66.

B3 gave a negative logarithm of the Kd (pKd) of 4.05.

On to B2, for which the pKd worked out at 3.75.

A further test has as its target PDLIM1, O00151. Briefly: holdup assay. On the set-up: key: below the threshold = too weak to quantify, mostly under pKd 3.1 to 4. As to conditions: plain residues with an end cap or a label only (N-terminal biotin on a linker: ado-ado).
B1: the negative logarithm of the Kd (pKd) result is “below the threshold”.

On to B2, for which the negative-log Kd (pKd) entry is on record as “below the threshold”.

For another test, the target named is T10, MPP2, Q14168. Briefly: holdup assay. On the set-up: key: below the threshold = too weak to quantify, mostly under pKd 3.1 to 4. As to conditions: plain residues with an end cap or a label only (N-terminal biotin on a linker: ado-ado).
Turning to B1, the pKd result is “below the threshold”.

As for B3, the pKd result is recorded as “below the threshold”.

Take B2: the negative logarithm of the Kd (pKd) entry was “below the threshold”.

The target of a further test is T11, SIPA1L2, Q9P2F8. Briefly: holdup assay. On the set-up: key: below the threshold = too weak to quantify, mostly under pKd 3.1 to 4. To be noted: plain residues with an end cap or a label only (N-terminal biotin on a linker: ado-ado).
As to B1, the negative-log Kd (pKd) result is given as “below the threshold”.

B3: the negative-log Kd (pKd) entry was “below the threshold”.

B2: the negative-log Kd (pKd) result is recorded as “below the threshold”.

The next test addresses MAST2, Q6P0Q8. Briefly: holdup assay. On the set-up: key: below the threshold = too weak to quantify, mostly under pKd 3.1 to 4. To be noted: plain residues with an end cap or a label only (N-terminal biotin on a linker: ado-ado).
Molecule B1 came in with a pKd of 4.77.

On to B3, for which the negative logarithm of the Kd (pKd) turned out to be 4.97.

Molecule B2 registered a negative logarithm of the Kd (pKd) of 5.35.

The next test has as its target T12, PDZD7_3, Q9H5P4. Briefly: holdup assay. On the set-up: key: below the threshold = too weak to quantify, mostly under pKd 3.1 to 4. To be noted: plain residues with an end cap or a label only (N-terminal biotin on a linker: ado-ado).
For the molecule B3, the negative-log Kd (pKd) amounted to 4.12.

As to B2, the pKd came out at 3.94.

The target of a further test is CASK, O14936. Briefly: holdup assay. Set-up: key: below the threshold = too weak to quantify, mostly under pKd 3.1 to 4. As to conditions: plain residues with an end cap or a label only (N-terminal biotin on a linker: ado-ado).
CASK, O14936, sequence (O14936 487-570): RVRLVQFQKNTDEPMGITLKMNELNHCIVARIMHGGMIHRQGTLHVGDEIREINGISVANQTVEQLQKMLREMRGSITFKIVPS
Take B3: the pKd entry was “below the threshold”.

With B2, the negative logarithm of the Kd (pKd) entry is listed as “below the threshold”.

Another test addresses Inadl_4, Q8NI35. Briefly: holdup assay. Set-up: key: below the threshold = too weak to quantify, mostly under pKd 3.1 to 4. To be noted: plain residues with an end cap or a label only (N-terminal biotin on a linker: ado-ado).
In the case of B1, the negative logarithm of the Kd (pKd) entry is “below the threshold”.

For B3, the negative-log Kd (pKd) entry is listed as “below the threshold”.

For B2, the negative-log Kd (pKd) entry is recorded as “below the threshold”.

The next test deals with ARHGEF12, Q9NZN5-2. Briefly: holdup assay. On the set-up: key: below the threshold = too weak to quantify, mostly under pKd 3.1 to 4. To be noted: plain residues with an end cap or a label only (N-terminal biotin on a linker: ado-ado).
ARHGEF12, Q9NZN5-2, sequence (Q9NZN5 other isoform, or with tags, fused parts or gaps): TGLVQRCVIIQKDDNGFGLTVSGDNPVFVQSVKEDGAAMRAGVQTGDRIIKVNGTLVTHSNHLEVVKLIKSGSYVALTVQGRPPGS
Regarding B3, the negative-log Kd (pKd) turned out to be 3.91.

B2 returned a pKd of 4.36.

A further test addresses T13, NHERF3_3, Q5T2W1. Briefly: holdup assay. On the set-up: key: below the threshold = too weak to quantify, mostly under pKd 3.1 to 4. To be noted: plain residues with an end cap or a label only (N-terminal biotin on a linker: ado-ado).
Consider B1, for which the negative-log Kd (pKd) entry is “below the threshold”.

On to B3, for which the pKd entry is “below the threshold”.

Turning to B2, the negative logarithm of the Kd (pKd) result is “below the threshold”.

A further test has as its target T14, SNTB1, Q13884. Briefly: holdup assay. On the set-up: key: below the threshold = too weak to quantify, mostly under pKd 3.1 to 4. As to conditions: plain residues with an end cap or a label only (N-terminal biotin on a linker: ado-ado).
The molecule B2 showed a negative logarithm of the Kd (pKd) of 4.73.
